Test: soluble on expression in E. coli; label from the status in PepcDB or PDB records

Row | Sequence | soluble on expression in E. coli
1 | MSPSESGELSIIQELSQRIVEAQRQIRILDSIKWDESVKQEFFKFKGKKLPSIDKAYYDGKPLPFKVKDKQEEFRIILRDAQNQLGQYSTVTRLIRRQCEEYSRAAQMLSLRGTPSFSEMAMELYGSPDDVFYVGGPRMCEMGSLLFDVLKSLQVQLQSQADIKRYTPIQAQEILQERLGKFFDKHPGRVSVMVSDDMIADASAGADSIKLSQNAMFSDRDLRYLEVHEGWVHVGTTLNGALQPNCFFLSKGSPSSSVIQEGLAVITEVVTFSSYPGRMLKITNRVIALDKVTQGADFIDIYRYFLECGLSEEDSYNQSVRIFRGSTPTGGPFTKDLSYAKGFVLIYNYIRFAIGQKRVDTIPLLFTGKLVLDDLPLLGELKEREILTDPVYLPPPFQDLAALSAWMSFSLYLNQFDLNEIQKNFRFLLVLEHHHHHH | not soluble
2 | MSLEKLSHGLVTSRNMIRYKSSQLPERVLQFGEGNFLRGFIDWMIQQMNKQNVFNGRVVAIQPTPHGKVVPKLQEQDSLYTVWLRGIADGETVDHHEVITSISRGLNPYTNWQDVLEVAASPDISVVFSNTTEAGLTYLEEGYDKEKAPLSFPGKLAACLWHRYETLGWGEGSGLVIIPCELVEQNGKVLKELVCRYAKAWNFPQEFFTWLERENEFCHTLVDRIVPGFPSDTADECFERLGYEDILLTVAEPYHLFIIEGSERVRKLLPFNEAGLHVRWNHLEKHRNMKVRVLNGTHTFMFALSYLSGVDTVGEAMADEQLCSFIRKGLFEEIIPCVDAPEQEVTAFAETVLERFENPFLQHRLTDIGLNAVNKFRTRLMPTFNDYVAQTGEAPTYLLFSLAALINYYRGVEEDGPFLIGRRREDSYLIRDDLEVIEAFKVGWQQVNTGKLSLAQLCEDLLSKRELWGVDLSMERKVVDKVAESLQIIVEKGMRQAISGVLNQIGGNNHVHKEGHHHHHH | soluble
3 | MDYFPIFCQLQHKACLLVGGGEIAERKARLLLDAGALVTVNACEFTPQFHHWADQGQLSLISGEFVPELLADKWLVIAATDQLSVNALVYQSANQQRIFCNVVDDPKRTSFIMPSIIDRSPIMIAVSSGGKAPVLARLLREKLEALLPQHLGQLAGNLRQRVKQHFTVMTERRRFWEKLLTHDRLAQSLANNDHVQADQHVEQLFSAPLTDRGEVVLVGAGPGDAGLLTLKGLQQIQQADVVVYDRLVSDEVMNLVRRDAERIFVGKQSGHHCVPQEQINQILLQQAQSGKRVVRLKGGDPFIFGRGGEELEELAGYGIPFSVVPGITAASGCSAYSGIPLTHRDHAQSVRLVTGHAKKEGQLDWANLAAEKQTLVFYMGLSQAGEIQQQLIQHGMPATTQVALVENGTSRHQRVVSGELSQLALLSQQVSSPSLIIVGSVVSLREKLNWFSSRHHDDQPKVTECVAHVG | not soluble
4 | MSLDKLLERFLNYVSLDTQSKAGVRQVPSTEGQWKLLHLLKEQLEEMGLINVTLSEKGTLMATLPANVPGDIPAIGFISHVDTSPDCSGKNVNPQIVENYRGGDIALGIGDEVLSPVMFPVLHQLLGQTLITTDGKTLLGADDKAGIAEIMTALAVLQQKKIPHGDIRVAFTPDEEVGKGAKHFDVDAFDARWAYTVDGGGVGELEFENFNAASVNIKIVGNNVHPGTAKGVMVNALSLAARIHAEVPADESPEMTEGYEGFYHLASMKGTVERADMHYIIRDFDRKQFEARKRKMMEIAKKVGKGLHPDCYIELVIEDSYYNMREKVVEHPHILDIAQQAMRDCDIEPELKPIRGGTDGAQLSFMGLPCPNLFTGGYNYHGKHEFVTLEGMEKAVQVIVRIAELTAQRKEGGSHHHHHH | soluble
5 | GPGSMALPRLQMFALASRIEELVLDSVTVHPHSVVAIGNAERQGNGQPPPPSNWVPLSDLASLQKLRRLDMTNCKGDFDCAGIARCCFLRSVHLSGCNVKDADVPHLAQLPCVEELLLSRTRITNVQALAAGKGLRIIQLSNAQVDSDGIDGLQTLPYLTRLDLSSTLVSDVNCLGQSQSLIYLNLAKTHVTSEGIAGLSRLLTLEHLMLNNNNIRDVSFLAESHSLKTLSLQSTLVDSAGLEGLGRLRTLQDLSLAHTRVTNVTKLQHCRNLWRLDLQGSFVDQAGIVGLERLPKLRVLVLSKTDVASLELILKSESLEQLEVKFSHVNERSAFFGVTKASALTDVTLTHCDVSDINNLGMCKELRLLNVWSSKVTSEGIAGLCDARSLQEVDLAETAVTDISPLLSCTKIQALILYRSSVRSLDGIGALQQLRRLDIAETSVSSIRSLSACQRLEILNLSNTAVDDDGFQGIGQAQSLKVVSMSFTAITQVGQLGQCSHLEELHAQSCPVTSEGLVGLERACCLVKLNLSYTKLQSGIQRLTNCRKLLKLNVKFTEVPYDEVAYVKRHLPSCRVMNDAAQRMAKDVTLLT | not soluble
6 | MVTKEQVVEALEGIVDPFLHKTLKETSAIKEVTVKPEKEHVSVKIAIVKTGTAEQMQLQSGIVKLVKELGAATVGLRFAEFTEEELAQFAPEQEEEQSESLLSPNSKTTFLAVASGKGGVGKSTVSVNLAVALARLGKKVGIIDADIYGFSVPDMMGIEKRPIVRGDKIIPVERLGVKVISMGFFVEDNAPVIWRGPMLGKMLNHFFTEVEWGDLDYLVLDLPPGTGDVALDVHSMLPSCKEIIVTTPHPTAAFVAARAGAMALRTEHSILGVVENMAYFESKVTGEKEYVFGKGGGDKLATELQTNVLGRIPLQQPDWNKEDFAPSVYEDTHTTGIIYSKIAETVIDKTAVTQKLEHHHHHH | soluble
7 | MGSDKIHHHHHHMKVLIITNLFPLNNNSNSGIFVVQRLRHYKSFNVNLDTISLGHHNSKIASLLEKLLRGHSNKKTLEEVENVKFYPVSIEINLLRLIKYGLLRNYFTVLCKEYKKMIEEAFNLNEYDLIHAHGMYSVPAGLTAKILAEKYRKPFIVTLHGSDVNLFMPHRKEIYVSILESASATIFVSKALLEKAKSLGFSGKNAVVIPNGYDETIFKPMDKEAVRKELGIHREGYKYVGFVGNLIPIKRADKLGEIFHLIAKEIPETFFIIVGDGPLRKKIEKETKGLNIIFTGRLPQKDVAKYMNAMDVMVLPSRNEGWPCVILEAQACGTCVIGSSNRGIPEAIGFPEYVVEEGDQFEERFARRVVEVLNEGYDVNRILERAKGFTWRNIVEKEIDVHKRVVLKS | not soluble
8 | MLDAFAKVVAQADARGEFLTNAQFDALSNLVKEGNKRLDAVNRITSNASTIVANAARALFAEQPQLIQPGGNAYTNRRMAACLRDMEIILRYVTYAILAGDSSVLDDRCLNGLRETYQALGTPGSSVAVAIQKMKDAAIAIANDPNGITPGDCSALMSEIAGYFDRAAAAVA | soluble
9 | SMHFVQQKVKVFRAADPLVGVFLWGVAHSINELSQVPPPVMLLPDDFKASSKIKVNNHLFHRENLPSHFKFKEYCPQVFRNLRDRFGIDDQDYLVSLTRNPPSESEGSDGRFLISYDRTLVIKEVSSEDIADMHSNLSNYHQYIVKCHGNTLLPQFLGMYRVSVDNEDSYMLVMRNMFSHRLPVHRKYDLKGSLVSREASDKEKVKELPTLRDMDFLNKNQKVYIGEEEKKIFLEKLKRDVEFLVQLKIMDYSLLLGIHDIIRGSEPEEEAPVREDESEVDGDCSLTGPPALVGSYGTSPEGIGGYIHSHRPLGPGEFESFIDVYAIRSAEGAPQKEVYFMGLIDILTQYDAKKKAAHAAKTVKHGAGAEISTVHPEQYAKRFLDFITNIFA | soluble
10 | MATAADSVYSIESPKAAKSLMLDVVHAGKRLVAVGDRGHILYSDDQGQTWVQAKVPTRQLLTAVYFVDDKRGWAVGHDAQVLASSDGGATWTRQFQDLKREAPLLDVWFKDTQTGYAVGAYGALLETSDGGQHWEDVSDRLDNEDQFHLNAIAQVKDSGLFIVGEQGSMFRSADDGQTWERLEGPYEGSLFGVIGTGQPATLLVYGLRGNLYRSTDFGSTWEQVELEHHHHHH | soluble
11 | MGSDKIHHHHHHMMYTNDNRIVMTLDAGGTNFVFSAIQGGKEIADPVVLPACADCLDKCLGNLVEGFKAIQAGLPEAPVAISFAFPGPADYQAGIIGDLPNFPSFRGGVALGPFLEDIFGIPVFINNDGSLFAYGEALTGVLPEINRRLREAGSTKRYKNLLGVTLGTGFGAGVVIDGELLRGDNAAGGYVWCLRNKKYPEYIVEESVSIRAVMRVYAERSGDAGARTPKEIFEIAEGIRPGNREAAIAAFEELGEMAGDALASAITLIDGLIVIGGGLSGASKYILPVLLKEMNAQTGMMDGARFGRLQKEVYDLDEEKSFAGFARGEAVEVLVPGTNRKVGYDPCKRIGVTFSKQGANRSIAMGAYVFALNHLSK | not soluble
12 | MHKVVIVGRPNVGKSSLFNRLLKKRSAVVADVPGVTRDLKEGVVETDRGRFLLVDTGGLWSGDKWEKKIQEKVDRALEDAEVVLFAVDGRAELTQADYEVAEYLRRKGKPVILVATKVDDPKHELYLGPLYGLGFGDPIPTSSEHARGLEELLEAIWERLPVRQIETEPEVAGIRLAIVGRPNAGKSSLLNAILGEERVIVSEEPGTTRDAIDVEFFFGGQRFVLVDTAGIRKRPENLVEELAIRRSLRAMDEADVVLLVVDPFQVGDRELKLANEALDRGKPVLLVITKWDLVDKEDAPKMRRLLREKLAHLDHLPRVFTSALTRQNLDRIFREAVRLHELNQTRVPTAELNRWVAVWTSRVQMPNFKGKPLKILYATQPEVAPPTFVFFVNHPEFVTRAFENYLKNRIGEDLGLREVPFRLVFRGRREE | soluble
13 | MSQAFTESVKTSLGPNATPRAKKLIASLVQHVHDFARENHLTTEDWLWGVDFINRIGQMSDSRRNEGILVCDIIGLETLVDALTNESEQSNHTSSAILGPFYLPDSPVYPNGGSIVQKAIPTDVKCFVRGKVTDTEGKPLGGAQLEVWQCNSAGFYSQQADHDGPEFNLRGTFITDDEGNYSFECLRPTSYPIPYDGPAGDLLKIMDRHPNRPSHIHWRVSHPGYHTLITQIYDAECPYTNNDSVYAVKDDIIVHFEKVDNKDKDLVGKVEYKLDYDISLATESSIQEARAAAKARQDAEIKL | soluble
14 | MLEFEQGFNHLATLKVIGVGGGGNNAVNRMIDHGMNNVEFIAINTDGQALNLSKAESKIQIGEKLTRGLGAGANPEIGKKAAEESREQIEDAIQGADMVFVTSGMGGGTGTGAAPVVAKIAKEMGALTVGVVTRPFSFEGRKRQTQAAAGVEAMKAAVDTLIVIPNDRLLDIVDKSTPMMEAFKEADNVLRQGVQGISDLIAVSGEVNLDFADVKTIMSNQGSALMGIGVSSGENRAVEAAKKAISSPLLETSIVGAQGVLMNITGGESLSLFEAQEAADIVQDAADEDVNMIFGTVINPELQDEIVVTVIATGFDDKPTSHGRKSGSTGFGTSVNTSSNATSKDESFTSNSSNAQATDSVSERTHTTKEDDIPSFIRNREERRSRRTRR | not soluble
15 | MGSDKIHHHHHHMDVENIFRDVKLSKTEMTVLRFIQNDPEQCIRQGVRAVAEQCYSNPSSLVRLAKKLKFSGWLELVYFIKFNITMPKLDVTNDIDYMSVQPEEALTPLLASLNQQRILIHGSGFSQLIAQYIYNKFLVTGVNASLALWPDYEILEQKNAACFDSIWIISKSGRSSSALNWVKALEGKEINLVCFTGDYQSPLAQAADTAFIIHDPQKFDDDIYWSNPFFGYCILGFERLLKMWFTSLRSNS | not soluble
16 | GPGSMPPSTAAPYALRTDKLKPLEGYVAGCSVSPAEVASQVASSLQPVVLAICGSFNPIHNAHLKLYDAAKRSVDGADGRVVLGGFLSPVGDAYGKPGLRSAADRVHIMRKALCHHPDLNVDTWECQQPVYMRTFFVLQALEEHINAWYAESEPAAVEWLASHDRRVRVAFVCGADLFSSFWIPGCWQLRLLRQLLDSFHLVVVHRDGGRGCVRGADDFAHVCQTAPLLSETAEGGEKIEIDMSQYTFTFATFSAPDDTSSTAVRAAAMELARTPQGDAVTRAALQSRLRAMLPEAAVQSVVELYGKVLTS | not soluble
